In publication doi:10.1101/2025.09.26.678709, “MRAP2 potentiates GPCR signaling by conserved mechanisms that are disrupted by obesity-associated genetic variants” (bioRxiv, 2025):

Assays:
Conditions in all cases: partners not purified
HA-Halo-GHSR = molecular target: T1, HA-Halo-GHSR (human, UniProt Q92847 1-366, CA-Sulfo646 dye on the Halo tag); assay: single-molecule pull-down (SiMPull) with photobleaching step counting; two-color: HA-Halo protein (CA-Sulfo646) and FLAG-CLIP protein (BC-DY547) co-expressed in HEK293 (300 ng Halo and 600 ng CLIP plasmid), lysed in 0.5% LMNG/0.05% CHS, captured by biotinylated anti-HA antibody, co-localized spots analysed by TIRF; also reanalysed for monomeric against oligomeric GPCR
T1 construct: growth hormone secretagogue receptor-1a (GHSR), human; N-terminal signal peptide from rat mGluR2 precedes the HA tag in the construct (pRK5 vector); also called ss-HA-Halo-GHSR; growth hormone secretagogue receptor-1a; source: HEK293, transfected, in lysate (LMNG-CHS); not shown: HA, N-terminal, kept; Halo, N-terminal, kept

HA-Halo-MC4R = molecular target: T2, HA-Halo-MC4R (human, UniProt P32245 1-332, CA-Sulfo646 dye on the Halo tag); assay: as above
T2 construct: melanocortin receptor-4 (MC4R), human; N-terminal signal peptide from rat mGluR2 in the construct; also called melanocortin receptor 4; source: HEK293, transfected, in lysate (LMNG-CHS); not shown: HA, N-terminal, kept; Halo, N-terminal, kept

GHSR-LgC = molecular target: T3, GHSR-LgC (UniProt Q92847 1-366); assay: split reporter (BiFC, NanoBiT); HEK293 cells transfected with 100 ng GHSR-LgC and MRAP2-SmC, 48 h, Nano-Glo substrate, 37°C; normalised to cells with LgC-empty and SmC-empty
T3 construct: GHSR cloned into the LgBiT-C plasmid (Promega); also called GHSR with LgBiT at the C-terminus; source: HEK293, transfected, in cells; not shown: LgBiT, C-terminal, kept

HA-Halo-MRAP2 = molecular target: T4, HA-Halo-MRAP2 (human, UniProt Q96G30 1-205, CA-Sulfo646 dye on the Halo tag); assay: single-molecule pull-down (SiMPull) with photobleaching step counting; two-color: HA-Halo protein (CA-Sulfo646) and FLAG-CLIP protein (BC-DY547) co-expressed in HEK293 (300 ng Halo and 600 ng CLIP plasmid), lysed in 0.5% LMNG/0.05% CHS, captured by biotinylated anti-HA antibody, co-localized spots analysed by TIRF; also reanalysed for monomeric against oligomeric GPCR
T4 construct: melanocortin receptor-2 accessory protein-2 (MRAP2), human; N-terminal signal peptide from rat mGluR2 in the construct; also called melanocortin receptor-2 accessory protein-2; source: HEK293, transfected, in lysate (LMNG-CHS); not shown: HA, N-terminal, kept; Halo, N-terminal, kept
T4 sequence (looked up): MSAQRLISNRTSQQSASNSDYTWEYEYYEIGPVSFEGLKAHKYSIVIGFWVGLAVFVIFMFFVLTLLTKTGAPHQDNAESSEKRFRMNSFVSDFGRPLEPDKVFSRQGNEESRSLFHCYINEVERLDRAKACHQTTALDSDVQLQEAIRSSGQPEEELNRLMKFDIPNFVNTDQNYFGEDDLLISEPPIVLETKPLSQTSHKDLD

T2 sequence (P32245 whole entry): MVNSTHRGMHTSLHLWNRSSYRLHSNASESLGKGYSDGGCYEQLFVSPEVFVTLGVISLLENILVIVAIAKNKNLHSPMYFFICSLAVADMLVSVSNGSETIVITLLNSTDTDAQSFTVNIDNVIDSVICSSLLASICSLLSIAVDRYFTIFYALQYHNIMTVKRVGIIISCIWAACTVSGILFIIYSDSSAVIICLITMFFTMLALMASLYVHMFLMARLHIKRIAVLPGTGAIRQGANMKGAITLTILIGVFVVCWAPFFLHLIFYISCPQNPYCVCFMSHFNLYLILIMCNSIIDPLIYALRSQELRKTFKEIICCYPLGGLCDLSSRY

B1: FLAG-CLIP-MRAP2 (natural protein, human, UniProt Q96G30 1-205, looked up)
chain: MSAQRLISNRTSQQSASNSDYTWEYEYYEIGPVSFEGLKAHKYSIVIGFWVGLAVFVIFMFFVLTLLTKTGAPHQDNAESSEKRFRMNSFVSDFGRPLEPDKVFSRQGNEESRSLFHCYINEVERLDRAKACHQTTALDSDVQLQEAIRSSGQPEEELNRLMKFDIPNFVNTDQNYFGEDDLLISEPPIVLETKPLSQTSHKDLD
modifications: BC-DY547 dye on the CLIP tag
notes: melanocortin receptor-2 accessory protein-2 (MRAP2), human; N-terminal signal peptide from rat mGluR2 in the construct; source: HEK293, transfected, in lysate (LMNG-CHS); not shown: CLIP, N-terminal, kept
percent of co-localized spots with 2-step bleaching for MRAP2 (HA-Halo-GHSR): 27%
stoichiometry N (HA-Halo-GHSR): 1 MRAP2 per GHSR
percent of co-localized spots with 2-step bleaching for MRAP2 (HA-Halo-MC4R): 29%
stoichiometry N (HA-Halo-MC4R): 1 MRAP2 per MC4R

B2: MRAP2-SmC (natural protein, UniProt Q96G30 1-205, looked up)
chain: MSAQRLISNRTSQQSASNSDYTWEYEYYEIGPVSFEGLKAHKYSIVIGFWVGLAVFVIFMFFVLTLLTKTGAPHQDNAESSEKRFRMNSFVSDFGRPLEPDKVFSRQGNEESRSLFHCYINEVERLDRAKACHQTTALDSDVQLQEAIRSSGQPEEELNRLMKFDIPNFVNTDQNYFGEDDLLISEPPIVLETKPLSQTSHKDLD
notes: MRAP2; printed as MRAP2-SmC in the results and SmC-MRAP2 in the methods; also called SmC-MRAP2; source: HEK293, transfected, in cells
fold luminescence over negative controls (GHSR-LgC): 400 fold

B3: FLAG-CLIP-GHSR (receptor, human, UniProt Q92847 1-366, looked up)
chain: MWNATPSEEPGFNLTLADLDWDASPGNDSLGDELLQLFPAPLLAGVTATCVALFVVGIAGNLLTMLVVSRFRELRTTTNLYLSSMAFSDLLIFLCMPLDLVRLWQYRPWNFGDLLCKLFQFVSESCTYATVLTITALSVERYFAICFPLRAKVVVTKGRVKLVIFVIWAVAFCSAGPIFVLVGVEHENGTDPWDTNECRPTEFAVRSGLLTVMVWVSSIFFFLPVFCLTVLYSLIGRKLWRRRRGDAVVGASLRDQNHKQTVKMLAVVVFAFILCWLPFHVGRYLFSKSFEPGSLEIAQISQYCNLVSFVLFYLSAAINPILYNIMSKKYRVAVFRLLGFEPFSQRKLSTLKDESSRAWTESSINT
modifications: BC-DY547 dye on the CLIP tag
notes: growth hormone secretagogue receptor-1a (GHSR), human; N-terminal signal peptide from rat mGluR2 precedes the FLAG tag in the construct (pRK5 vector); also called ss-FLAG-CLIP-GHSR; source: HEK293, transfected, in lysate (LMNG-CHS); not shown: CLIP, N-terminal, kept
percent of co-localized spots with 2-step bleaching for MRAP2 (HA-Halo-MRAP2): 22%
stoichiometry N (HA-Halo-MRAP2): 1 MRAP2 per GHSR
